“And” between values parts separate entries of the source, which are not always exact repeats. Identical values can stand only once.
Columns and labels:
[1] = substrate: C#C[C@]1(O)CC[C@H]2[C@@H]3CCc4cc(O)ccc4[C@H]3CC[C@@]21C; test: (§1) Drug glucuronidation reaction catalyzed by human recombinant UGT1A1
[2] = substrate: C=CCN1CC[C@]23c4c5ccc(O)c4O[C@H]2[C@@H](O)C=C[C@H]3[C@H]1C5; test: as §1
[3] = substrate: CC(=O)Nc1ccc(O)cc1; test: as §1
[4] = substrate: CC(O)/C(=C(\c1ccccc1)c1ccc(OCCN(C)C)cc1)c1ccccc1; test: as §1
[5] = substrate: CCN(CC)C(=O)/C(C#N)=C/c1cc(O[C@@H]2O[C@@H](C(=O)O)[C@@H](O)[C@H](O)[C@@H]2O)c(O)c([N+](=O)[O-])c1; test: as §1
[6] = substrate: CCN(CC)C(=O)/C(C#N)=C\c1cc(O[C@@H]2O[C@@H](C(=O)O)[C@@H](O)[C@H](O)[C@@H]2O)c(O)c([N+](=O)[O-])c1; test: as §1
[7] = substrate: CCOC(=O)Nc1ccc(NCc2ccc(F)cc2)cc1N; test: as §1
[8] = substrate: CCc1c2c(nc3ccc(O)cc13)-c1cc3c(c(=O)n1C2)COC(=O)[C@]3(O)CC; test: as §1
[9] = substrate: CN1CC[C@]23c4c5ccc(O[C@@H]6O[C@H](C(=O)O)[C@@H](O)[C@H](O)[C@H]6O)c4O[C@H]2[C@@H](O)C=C[C@H]3[C@H]1C5; test: as §1
[10] = substrate: CO[C@]12CC[C@@]3(C[C@@H]1[C@](C)(O)C(C)(C)C)[C@H]1Cc4ccc(O)c5c4[C@@]3(CCN1CC1CC1)[C@H]2O5; test: as §1
[11] = substrate: COc1c(C)c2c(c(O)c1C/C=C(\C)CCC(=O)O)C(=O)OC2; test: as §1
[12] = substrate: COc1cc([C@@H]2c3cc4c(cc3[C@@H](O[C@@H]3O[C@@H]5CO[C@@H](C)O[C@H]5[C@H](O)[C@H]3O)[C@H]3COC(=O)[C@H]23)OCO4)cc(OC)c1O; test: as §1
[13] = substrate: O=C1CC[C@@]2(O)[C@H]3Cc4ccc(O)c5c4[C@@]2(CCN3CC2CC2)[C@H]1O5; test: as §1
[14] = substrate: O=C1[C@H](CC[C@H](O)c2ccc(F)cc2)[C@@H](c2ccc(O)cc2)N1c1ccc(F)cc1; test: as §1
[15] = substrate: CC(O)/C(=C(\c1ccccc1)c1ccc(OCCN(C)C)cc1)c1ccccc1; test: (§2) Drug glucuronidation reaction catalyzed by human recombinant UGT1A4
[16] = substrate: CC/C(=C(\c1ccccc1)c1ccc(OCCN(C)C)cc1)c1ccccc1; test: as §2
[17] = substrate: CC[C@@H]([C@H](C)O)n1ncn(-c2ccc(N3CCN(c4ccc(OC[C@@H]5CO[C@@](Cn6cncn6)(c6ccc(F)cc6F)C5)cc4)CC3)cc2)c1=O; test: as §2
[18] = substrate: CCc1c2c(nc3ccc(O)cc13)-c1cc3c(c(=O)n1C2)COC(=O)[C@]3(O)CC; test: as §2
[19] = substrate: CN1CCC(=C2c3ccccc3C=Cc3ccccc32)CC1; test: as §2
[20] = substrate: CN1CCC(=C2c3ccccc3CC(=O)c3sccc32)CC1; test: as §2
[21] = substrate: O=C1Nc2ccc(Cl)cc2C(c2ccccc2)=N[C@H]1O; test: not read
[22] = substrate: CC(O)/C(=C(\c1ccccc1)c1ccc(OCCN(C)C)cc1)c1ccccc1; test: (§3) Drug glucuronidation reaction catalyzed by human recombinant UGT2B15
[23] = substrate: CCN(CC)C(=O)/C(C#N)=C/c1cc(O)c(O)c([N+](=O)[O-])c1; test: as §3
[24] = substrate: CCc1c2c(nc3ccc(O)cc13)-c1cc3c(c(=O)n1C2)COC(=O)[C@]3(O)CC; test: as §3
[25] = substrate: CS(=O)(=O)c1ccc(C2=C(c3ccccc3)C(=O)OC2O)cc1; test: as §3
[26] = substrate: C[C@]12CC[C@H](O)C[C@@H]1CC[C@@H]1[C@@H]2CC[C@]2(C)[C@@H](O)CC[C@@H]12; test: as §3
[27] = substrate: Cc1ccc(C(=O)c2cc(O)c(O)c([N+](=O)[O-])c2)cc1; test: as §3
[28] = substrate: Cc1c(Cl)cccc1Nc1ncccc1C(=O)O; test: not read
[29] = substrate: CC(C(=O)O)c1cccc(C(=O)c2ccccc2)c1; test: (§4) Drug glucuronidation reaction catalyzed by human recombinant UGT1A3
[30] = substrate: CC(C)Cc1ccc(C(C)C(=O)O)cc1; test: as §4
[31] = substrate: CN(C)CCCN1c2ccccc2CCc2ccccc21; test: as §4
[32] = substrate: CN1CCC(=C2c3ccccc3C=Cc3ccccc32)CC1; test: as §4
[33] = substrate: CN1CCC(=C2c3ccccc3CC(=O)c3sccc32)CC1; test: as §4
[34] = substrate: CN1CC[C@]23c4c5ccc(O[C@@H]6O[C@H](C(=O)O)[C@@H](O)[C@H](O)[C@H]6O)c4O[C@H]2[C@@H](O)C=C[C@H]3[C@H]1C5; test: as §4
[35] = substrate: CO[C@]12CC[C@@]3(C[C@@H]1[C@](C)(O)C(C)(C)C)[C@H]1Cc4ccc(O)c5c4[C@@]3(CCN1CC1CC1)[C@H]2O5; test: as §4
[36] = substrate: O=C1[C@H](CC[C@H](O)c2ccc(F)cc2)[C@@H](c2ccc(O)cc2)N1c1ccc(F)cc1; test: as §4

B1: UDP-glucuronosyltransferase 1A1 (Homo sapiens) (protein)
chain: MAVESQGGRPLVLGLLLCVLGPVVSHAGKILLIPVDGSHWLSMLGAIQQLQQRGHEIVVLAPDASLYIRDGAFYTLKTYPVPFQREDVKESFVSLGHNVFENDSFLQRVIKTYKKIKKDSAMLLSGCSHLLHNKELMASLAESSFDVMLTDPFLPCSPIVAQYLSLPTVFFLHALPCSLEFEATQCPNPFSYVPRPLSSHSDHMTFLQRVKNMLIAFSQNFLCDVVYSPYATLASEFLQREVTVQDLLSSASVWLFRSDFVKDYPRPIMPNMVFVGGINCLHQNPLSQEFEAYINASGEHGIVVFSLGSMVSEIPEKKAMAIADALGKIPQTVLWRYTGTRPSNLANNTILVKWLPQNDLLGHPMTRAFITHAGSHGVYESICNGVPMVMMPLFGDQMDNAKRMETKGAGVTLNVLEMTSEDLENALKAVINDKSYKENIMRLSSLHKDRPVEPLDLAVFWVEFVMRHKGAPHLRPAAHDLTWYQYHSLDVIGFLLAVVLTVAFITFKCCAYGYRKCLGKKGRVKKAHKSKTH
Q: Which Km [1] does the source give for B1 here?
A: 9 µM and 20 µM

Q: What about the Km [2] of the same protein?
A: 2070 µM

Q: And the Vmax [2]?
A: 2e-06 µmol/min/mg

Q: And the Km [3]?
A: 9400 µM

Q: And the Vmax [3]?
A: 0.0013 µmol/min/mg

Q: And the Km [4]?
A: 138 µM and 129 µM

Q: And the Km [5]?
A: 31 µM

Q: What about the Vmax [5] of the same protein?
A: 4e-06 µmol/min/mg

Q: And the Km [6]?
A: 93 µM

Q: And the Vmax [6]?
A: 5e-06 µmol/min/mg

Q: What about the Km [7] of the same protein?
A: 460 µM

Q: And the Km [8]?
A: 24 µM

Q: What about the Vmax [8] of the same protein?
A: 0.000134 µmol/min/mg

Q: And the Km [9]?
A: 18700 µM

Q: And the Vmax [9]?
A: 4.5e-06 µmol/min/mg

Q: And the Km [10]?
A: 57 µM and 69 µM

Q: And the Km [11]?
A: 185 µM

Q: And the Vmax [11]?
A: 0.000336 µmol/min/mg

Q: What about the Km [12] of the same protein?
A: 503 µM

Q: And the Vmax [12]?
A: 0.000267 µmol/min/mg

Q: What about the Km [13] of the same protein?
A: 1310 µM

Q: And the Vmax [13]?
A: 2e-06 µmol/min/mg

Q: And the Km [14]?
A: 64 µM

Q: And the Vmax [14]?
A: 0.00071 µmol/min/mg

B2: UDP-glucuronosyltransferase 1A4 (Homo sapiens) (protein)
chain: MARGLQVPLPRLATGLLLLLSVQPWAESGKVLVVPTDGSPWLSMREALRELHARGHQAVVLTPEVNMHIKEEKFFTLTAYAVPWTQKEFDRVTLGYTQGFFETEHLLKRYSRSMAIMNNVSLALHRCCVELLHNEALIRHLNATSFDVVLTDPVNLCGAVLAKYLSIPAVFFWRYIPCDLDFKGTQCPNPSSYIPKLLTTNSDHMTFLQRVKNMLYPLALSYICHTFSAPYASLASELFQREVSVVDLVSYASVWLFRGDFVMDYPRPIMPNMVFIGGINCANGKPLSQEFEAYINASGEHGIVVFSLGSMVSEIPEKKAMAIADALGKIPQTVLWRYTGTRPSNLANNTILVKWLPQNDLLGHPMTRAFITHAGSHGVYESICNGVPMVMMPLFGDQMDNAKRMETKGAGVTLNVLEMTSEDLENALKAVINDKSYKENIMRLSSLHKDRPVEPLDLAVFWVEFVMRHKGAPHLRPAAHDLTWYQYHSLDVIGFLLAVVLTVAFITFKCCAYGYRKCLGKKGRVKKAHKSKTH
Q: How did the Km [15] turn out when B2 was run?
A: 95 µM and 101 µM

Q: And the Km [16]?
A: 32 µM

Q: What about the Vmax [16] of the same protein?
A: 0.000402 µmol/min/mg

Q: What about the Km [17] of the same protein?
A: 16 µM

Q: What about the Vmax [17] of the same protein?
A: 1.7e-05 µmol/min/mg

Q: And the Km [18]?
A: 147 µM

Q: And the Vmax [18]?
A: 0.000132 µmol/min/mg

Q: And the Km [19]?
A: 62 µM

Q: And the Vmax [19]?
A: 4.9e-05 µmol/min/mg

Q: What about the Km [20] of the same protein?
A: 59 µM and 86 µM

B3: UDP-glucuronosyltransferase 2B15 (Homo sapiens) (protein)
chain: MSLKWTSVFLLIQLSCYFSSGSCGKVLVWPTEYSHWINMKTILEELVQRGHEVTVLTSSASTLVNASKSSAIKLEVYPTSLTKNYLEDSLLKILDRWIYGVSKNTFWSYFSQLQELCWEYYDYSNKLCKDAVLNKKLMMKLQESKFDVILADALNPCGELLAELFNIPFLYSLRFSVGYTFEKNGGGFLFPPSYVPVVMSELSDQMIFMERIKNMIHMLYFDFWFQIYDLKKWDQFYSEVLGRPTTLFETMGKAEMWLIRTYWDFEFPRPFLPNVDFVGGLHCKPAKPLPKEMEEFVQSSGENGIVVFSLGSMISNMSEESANMIASALAQIPQKVLWRFDGKKPNTLGSNTRLYKWLPQNDLLGHPKTKAFITHGGTNGIYEAIYHGIPMVGIPLFADQHDNIAHMKAKGAALSVDIRTMSSRDLLNALKSVINDPVYKENVMKLSRIHHDQPMKPLDRAVFWIEFVMRHKGAKHLRVAAHNLTWIQYHSLDVIAFLLACVATVIFIITKFCLFCFRKLAKKGKKKKRD
Q: How did the Km [21] turn out when B3 was run?
A: 35 µM and 29 µM

Q: What about the Km [22] of the same protein?
A: 7 µM and 18 µM

Q: And the Km [23]?
A: 322 µM

Q: And the Vmax [23]?
A: 2.4e-05 µmol/min/mg

Q: What about the Km [24] of the same protein?
A: 186 µM

Q: What about the Vmax [24] of the same protein?
A: 2e-06 µmol/min/mg

Q: And the Km [25]?
A: 286 µM

Q: What about the Vmax [25] of the same protein?
A: 1.6e-05 µmol/min/mg

Q: And the Km [26]?
A: 15 µM

Q: What about the Vmax [26] of the same protein?
A: 0.00098 µmol/min/mg

Q: What about the Km [27] of the same protein?
A: 429 µM

Q: And the Vmax [27]?
A: 2.4e-05 µmol/min/mg

B4: UDP-glucuronosyltransferase 1A3 (Homo sapiens) (protein)
chain: MATGLQVPLPWLATGLLLLLSVQPWAESGKVLVVPIDGSHWLSMREVLRELHARGHQAVVLTPEVNMHIKEENFFTLTTYAISWTQDEFDRHVLGHTQLYFETEHFLKKFFRSMAMLNNMSLVYHRSCVELLHNEALIRHLNATSFDVVLTDPVNLCAAVLAKYLSIPTVFFLRNIPCDLDFKGTQCPNPSSYIPRLLTTNSDHMTFMQRVKNMLYPLALSYICHAFSAPYASLASELFQREVSVVDILSHASVWLFRGDFVMDYPRPIMPNMVFIGGINCANRKPLSQEFEAYINASGEHGIVVFSLGSMVSEIPEKKAMAIADALGKIPQTVLWRYTGTRPSNLANNTILVKWLPQNDLLGHPMTRAFITHAGSHGVYESICNGVPMVMMPLFGDQMDNAKRMETKGAGVTLNVLEMTSEDLENALKAVINDKSYKENIMRLSSLHKDRPVEPLDLAVFWVEFVMRHKGAPHLRPAAHDLTWYQYHSLDVIGFLLAVVLTVAFITFKCCAYGYRKCLGKKGRVKKAHKSKTH
Q: How did the Km [28] turn out when B4 was run?
A: 624 µM

Q: And the Vmax [28]?
A: 5.2e-05 µmol/min/mg

Q: What about the Km [29] of the same protein?
A: 84 µM

Q: And the Vmax [29]?
A: 7.6e-05 µmol/min/mg

Q: What about the Km [30] of the same protein?
A: 230 µM

Q: What about the Vmax [30] of the same protein?
A: 8.8e-05 µmol/min/mg

Q: What about the Km [31] of the same protein?
A: 472 µM

Q: What about the Vmax [31] of the same protein?
A: 1e-05 µmol/min/mg

Q: And the Km [32]?
A: 240 µM

Q: What about the Vmax [32] of the same protein?
A: 0.000134 µmol/min/mg

Q: What about the Km [33] of the same protein?
A: 225 µM and 123 µM

Q: And the Km [34]?
A: 3200 µM

Q: What about the Vmax [34] of the same protein?
A: 1e-05 µmol/min/mg

Q: And the Km [35]?
A: 55 µM

Q: And the Vmax [35]?
A: 7.5e-05 µmol/min/mg

Q: What about the Km [36] of the same protein?
A: 42 µM

Q: And the Vmax [36]?
A: 0.00048 µmol/min/mg
